The data set in a line: protease stability score; higher = more stable; yeast display proteolysis, trypsin and chymotrypsin.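 Further: relative to predicted unfolded state with 0 unfolded-like and 1 meaning tenfold more protease.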
“DEDKDMKDTMLKDLLHTLETGDEDIWAKLIDPNTQVDIGDKRIHGREKIVEHFRRADVLTIHHVRLRQFHHFDGRAHMNVQFDGTVQINGVEVRFDVTVKLVFLKVNGRWFLHSEERE” showed a protease stability score of 1.15.
The value for “TELEDLVKRLWHIWLHAVLTGDEDLLTKLIDPHARLEIHIGDKEFIHIGREEFVRFMREYHRHLRVERVDERSMEVIGNKSHSDVRTVIHIDGRTIDTRMHIDLIVVNGRVKSLEIHVH” was 2.26; that for “TELEHDVIHAFNLIVWAIRTGDEKTYHRLVDPRVQIDIGDKHLHGREDFTRLLREIRVTVRDWDFEHVRFQGDYAILHSRLDIEINIDGRIERIDVHQILFVEKINGRWRHTRESRH” was 0.366; that for “DEDTHDTKKAVEEFIHTVRTGDEHSLRRQLDPNARVEVGDKEQHGRLFIEWFIRMLGIDNVDVRVHDHHVYDGRVEVDLLLHVDGRDFRVNIVWDKINGQWRNRMVIFR” was 1.17.
For “DEEEHLLRRVSHFWARARKTGNEEVIRDLMDPNMRSTINGVEFHGREEHLHTLREWRVKSVHFEHVHVVDGRIEIKMREDGFVNGRETHFTLRITIVIIDGVVHHISIDLR”, the protease stability score came to 0.787.
In the case of “DEEHNLSEEAMRHFFETVRTGDEELIYRLLDPNARVQINGKEHHGREDVWEFLWRNYMRADHVEVKVHHVEVQGEKVIIDLRLHVTINGKDLEIRLVLIIHKYNGRWHITELRIL” it was 0.555; in that of “DEADRFREFAKRLYLEKSNTGDWEELIRLFDPHARYEYGDKEMHGRDTIDFLREMLGIDRIQLRHVNDHSVDLQGDKIHIDGTVVEEWNGQEYRSRVILILRKVDGRWYLETMHVD”, 0.409; in that of “SEDDEAVSHALHLLSEVLLTGDERTWKRLADPNVKLEFNGREFHGMEEWKRMLDHIRIDHVKIELERSDSIGDKMHTHGRLIVHTTINGVELDRITDVRFIIEKVDGRWKLTSLHIH”, 1.29.
Sequence “DEEDEITHKMLRRWFEILATGNEHLFQHYADPNVLVRYEVGDKEWRLHGREEALRYWSELRIHELKVEHFTEVGDKVHMDTRRKGEFDGRRDTKKTRVHIVIIDGRLHNVELRIV” came in with a protease stability score of 1.14.
In the case of “GDEEHHATEALERLIHSFETGDEELMTKLVDPHVRFEVNGKLFIGREDVMRWLKERLDRFDHHRVDFKHIRVVGDKVDIHLVLEVDFNGQHFSHDVRVRIIKINGRWRLTHMSIH” it was 2.3; in that of “DESEHAAKHVSELFRELVDTGDEKFHEEFADPNVRLDYGDKHYHGREIQLRIFREWRIHHIEDKDVEVQGDKIFVDGRLDGTVDGRRQHYKIILIWRKVNGRWLSTQIRFH”, 1.59.
As for “DKEEHDMKRLADLMKRIFETGDWEEFWSLVDPNVRLHWIVNGREYEVIGRENASEMIEITLELLGVDHVEIHDIDVQGDKVHMKTRSIVNGREIDDNYHYIIVDGRLRRVEIKLK”, the protease stability score came to 1.81.
In the case of “SEKDREMEHFAKILISNLVTGDEEEIFRMADPHYRYQQGDKRIHGREEWRQWLREERERVDHIEFKIHRVEQQGEKIHLDWEIQIEIGNYEIKDKTTIIFIVVDGRLKQIEVRHH” it was 0.786.
Sequence “DEEEKLLEFLVEHIATILVTGDEDRWLTLADPDVKVIIDGRTFIGWEFLEELIHQIRIHRMRIRHFSFVNGRLVFIFSIDGTIGDKRDEHDTRYEMIKIDGRWRLKRVEIR” showed a protease stability score of 1.48.
As for “SRKDEHTHHLLHLFWEIFMTGDEERWTQLLDPNMRTEIDGKDLHGREDAIRFMIERLRQLGFDHMRLHHLENQGEKAHIDGTLEVGDKLVRVHFSTKIVNGRIKELTIKFH”, the protease stability score worked out at 1.02.
The value for “DDSSELLRKLLEELLRAYKTGDFDTLIEFFDPDVKLEFNGREVHGMDHFISEHRHFIRRFPGIRIHIDDVKWHTQGDKAQLHMDGTEDFDGKRRRVELIFIIEKFDGRWFFSSIRWHNI” was 1.53.
“SEDNEHLRKFLEDFIRAMETGDWKMLFRLMDPNVRMEVNGRELHGREEAKKLIEEIISRYDHVHIEIKRAHSIGDKIEVWGISDVEIGDKKHEIPLLFILKKVDGKWIIHSIRSE” yielded a protease stability score of 2.11.
In the case of “DEDEKRSEEFLNEFFHWVHTGDEEKLVKLMDPHMRLDVNGKESVGRENAFEMWHHLRIRRMDVRDIRVELVGDKAIARSDGHIDGEIDGVRIHTRVDLLLISRKVDGVWLFKSVSINSI” it was 2.23.

The values are drawn from the NTF2 design screens of Basanta et al. (2020).
